Experimental findings from PMC314469, “Protein Interaction Networks by Proteome Peptide Scanning” (PLoS Biology, 2004) are described below.

Holding throughout (test): SPOT array
In assay [1] the target is T1, Boi2 SH3 (BOI2_YEAST), P39969.
T1 chain: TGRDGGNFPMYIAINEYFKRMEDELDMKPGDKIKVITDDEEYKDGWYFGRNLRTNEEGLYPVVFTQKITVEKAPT

Assay [2] addresses T2, Rvs167 SH3 (RV167_YEAST), P39743.
T2 chain: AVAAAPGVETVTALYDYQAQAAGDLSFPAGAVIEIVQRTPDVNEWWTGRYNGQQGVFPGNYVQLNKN

Assay [3] concerns the target T3, Yhr016c SH3 (YSC84_YEAST), P32793.
T3 chain: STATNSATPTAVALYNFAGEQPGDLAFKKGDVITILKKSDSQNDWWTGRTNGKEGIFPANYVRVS

The target in assay [4] is T4, Boi1 SH3 (BOI1_YEAST), P38041.
T4 chain: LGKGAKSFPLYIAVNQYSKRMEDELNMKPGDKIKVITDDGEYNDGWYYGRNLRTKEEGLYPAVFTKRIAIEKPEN

The target in assay [5] is T5, Yfr024 SH3 (LSB3_YEAST), P43603.
T5 chain: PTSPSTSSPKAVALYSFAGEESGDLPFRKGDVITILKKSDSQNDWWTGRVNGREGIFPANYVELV

B1: YDR464W 666-679 (peptide)
chain: SGKPKKPYRRWTPE
Turning to B1, the normalised SPOT signal, Boehringer light units (BLU); mean over the file's lines of this peptide in assay [1] is 28; in assay [2], 196; in assay [3], 407; in assay [4], 109; in assay [5], 4000.

B2: YML061C 386-399 (peptide)
chain: SKDPNRPTKFAFES
With B2, the normalised SPOT signal, Boehringer light units (BLU); mean over the file's lines of this peptide in assay [1] is 37.9; in assay [2], 37.7; in assay [3], 236; in assay [4], 47.1; in assay [5], 162.

B3: YJL056C 343-356 (peptide)
chain: SKPPQLPPKSSSLR
On to B3, for which the normalised SPOT signal, Boehringer light units (BLU); mean over the file's lines of this peptide in assay [1] came out at 6.6; in assay [2] it was 140; in assay [3], 2910; in assay [4] it was 74.2; in assay [5], 45000.

B4: YGR264C 141-154 (peptide)
chain: SKFPELPSKVHNAV
As for B4, the normalised SPOT signal, Boehringer light units (BLU); mean over the file's lines of this peptide in assay [1] was 32.6; in assay [2] it was 20.5; in assay [3], 132; in assay [4] it was 105; in assay [5], 1170.

B5: YJR083C 215-228 (peptide)
chain: SGPPLLPPRNTMKN
In the case of B5, the normalised SPOT signal, Boehringer light units (BLU); mean over the file's lines of this peptide came out at 65.5 in assay [1]; 25500 in assay [2]; 30000 in assay [3]; 577 in assay [4]; 32900 in assay [5].

B6: YIR032C 171-184 (peptide)
chain: SLDPDRPEKDSVEE
In the case of B6, the normalised SPOT signal, Boehringer light units (BLU); mean over the file's lines of this peptide in assay [1] is 46.2; in assay [2], 20.5; in assay [3] it was 93.6; in assay [4], 83.1; in assay [5], 126.

B7: YDR419W 203-216 (peptide)
chain: SHLPLIPEKIKSLK
Turning to B7, the normalised SPOT signal, Boehringer light units (BLU); mean over the file's lines of this peptide in assay [1] came out at 56.3; in assay [2], 50.3; in assay [3] it was 136; in assay [4], 123; in assay [5] it was 774.

B8: YDR206W 310-323 (peptide)
chain: SKGPRTPAKEILEF
Regarding B8, the normalised SPOT signal, Boehringer light units (BLU); mean over the file's lines of this peptide in assay [1] amounted to 44.4; in assay [2], 53.9; in assay [3], 0; in assay [4] it was 176; in assay [5], 380.

B9: YOR254C 500-513 (peptide)
chain: SFAPFFPTKRRGSW
On to B9, for which the normalised SPOT signal, Boehringer light units (BLU); mean over the file's lines of this peptide in assay [1] turned out to be 350; in assay [2] it was 232; in assay [3] it was 998; in assay [4] it was 342; in assay [5], 15400.

B10: YGR040W 221-234 (peptide)
chain: SGKPLFPGRDYHHQ
In the case of B10, the normalised SPOT signal, Boehringer light units (BLU); mean over the file's lines of this peptide amounted to 54.4 in assay [1]; 105 in assay [2]; 896 in assay [3]; 33.8 in assay [4]; 2060 in assay [5].

B11: YHL027W 505-518 (peptide)
chain: SKIPMLPSRRTMAG
On to B11, for which the normalised SPOT signal, Boehringer light units (BLU); mean over the file's lines of this peptide is 4640 in assay [1]; 58400 in assay [2]; 103000 in assay [3]; 2650 in assay [4]; 45200 in assay [5].

B12: YML013W 181-194 (peptide)
chain: SKVPKAPTRETHIP
With B12, the normalised SPOT signal, Boehringer light units (BLU); mean over the file's lines of this peptide in assay [1] was found to be 36.6; in assay [2] it was 47.3; in assay [3] it was 218; in assay [4], 23.4; in assay [5], 1300.

B13: YDR332W 665-678 (peptide)
chain: SLAPVYPLKSLLRI
In the case of B13, the normalised SPOT signal, Boehringer light units (BLU); mean over the file's lines of this peptide in assay [1] was determined as 54.3; in assay [2] it was 45.5; in assay [3], 173; in assay [4], 7610; in assay [5], 782.

B14: YNL138W 352-365 (peptide)
chain: SGPPPRPKKPSTLK
For the molecule B14, the normalised SPOT signal, Boehringer light units (BLU); mean over the file's lines of this peptide in assay [1] is 84.8; in assay [2], 29; in assay [3], 305; in assay [4], 138; in assay [5] it was 2620.

B15: YOR057W 166-179 (peptide)
chain: SHSPISPLKIETAP
B15: the normalised SPOT signal, Boehringer light units (BLU); mean over the file's lines of this peptide in assay [1] came out at 47; in assay [2] it was 20.2; in assay [3], 45.7; in assay [4], 196; in assay [5], 38.9.

B16: YPR071W 44-57 (peptide)
chain: SFVPFPPFKLLTFD
Consider B16, for which the normalised SPOT signal, Boehringer light units (BLU); mean over the file's lines of this peptide in assay [1] worked out at 28.7; in assay [2] it was 68.3; in assay [3], 290; in assay [4] it was 75.4; in assay [5] it was 322.

B17: YOR059C 252-265 (peptide)
chain: SHAPTKPTKTYKKW
As for B17, the normalised SPOT signal, Boehringer light units (BLU); mean over the file's lines of this peptide was determined as 21.9 in assay [1]; 10 in assay [2]; 104 in assay [3]; 111 in assay [4]; 3670 in assay [5].

B18: YDL203C 329-342 (peptide)
chain: SHQPYLPIKNKNIV
In the case of B18, the normalised SPOT signal, Boehringer light units (BLU); mean over the file's lines of this peptide stood at 85 in assay [1]; 50.4 in assay [2]; 99.3 in assay [3]; 80.9 in assay [4]; 1340 in assay [5].

B19: YBR007C 353-366 (peptide)
chain: SLPPTPPYKAHKKK
B19: the normalised SPOT signal, Boehringer light units (BLU); mean over the file's lines of this peptide came out at 22.9 in assay [1]; 29.4 in assay [2]; 108 in assay [3]; 114 in assay [4]; 758 in assay [5].
